# Source: IntAct's records for PubMed 35512704
# B1: Mothers against decapentaplegic homolog 4 (Homo sapiens), Q13485 (parent)
# chain: MDNMSITNTPTSNDACLSIVHSLMCHRQGGESETFAKRAIESLVKKLKEKKDELDSLITAITTNGAHPSKCVTIQRTLDGRLQVAGRKGFPHVIYARLWRWPDLHKNELKHVKYCQYAFDLKCDSVCVNPYHYERVVSPGIDLSGLTLQSNAPSSMMVKDEYVHDFEGQPSLSTEGHSIQTIQHPPSNRASTETYSTPALLAPSESNATSTANFPNIPVASTSQPASILGGSHSEGLLQIASGPQPGQQQNGFTGQPATYHHNSTTTWTGSRTAPYTPNLPHHQNGHLQHHPPMPPHPGHYWPVHNELAFQPPISNHPAPEYWCSIAYFEMDVQVGETFKVPSSCPIVTVDGYVDPSGGDRFCLGQLSNVHRTEAIERARLHIGKGVQLECKGEGDVWVRCLSDHAVFVQSYYLDREAGRAPGDAVHKIYPSAYIKVFDLRQCHRQMQQQAATAQAAAAAQAAAVAGNIPGPGSVGGIAPAISLSAAAGIGVDDLRRLCILRMSFVKGWGPDYPRQSIKETPCWIEIHLHRALQLLDEVLHTMPIADPQPLD
# partner: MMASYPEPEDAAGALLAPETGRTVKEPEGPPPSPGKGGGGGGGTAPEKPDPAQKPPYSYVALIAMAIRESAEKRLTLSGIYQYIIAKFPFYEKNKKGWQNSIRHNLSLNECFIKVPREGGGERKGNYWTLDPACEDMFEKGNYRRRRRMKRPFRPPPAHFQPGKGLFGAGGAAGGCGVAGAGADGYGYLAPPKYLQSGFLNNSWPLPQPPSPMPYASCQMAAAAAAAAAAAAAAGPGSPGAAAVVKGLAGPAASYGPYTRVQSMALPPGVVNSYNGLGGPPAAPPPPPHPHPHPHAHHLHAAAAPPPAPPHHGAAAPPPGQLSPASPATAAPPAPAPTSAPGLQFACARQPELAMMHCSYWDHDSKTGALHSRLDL
# B2: Mothers against decapentaplegic homolog 4 (Homo sapiens), Q13485 (parent)
# chain: B1 chain
# partner: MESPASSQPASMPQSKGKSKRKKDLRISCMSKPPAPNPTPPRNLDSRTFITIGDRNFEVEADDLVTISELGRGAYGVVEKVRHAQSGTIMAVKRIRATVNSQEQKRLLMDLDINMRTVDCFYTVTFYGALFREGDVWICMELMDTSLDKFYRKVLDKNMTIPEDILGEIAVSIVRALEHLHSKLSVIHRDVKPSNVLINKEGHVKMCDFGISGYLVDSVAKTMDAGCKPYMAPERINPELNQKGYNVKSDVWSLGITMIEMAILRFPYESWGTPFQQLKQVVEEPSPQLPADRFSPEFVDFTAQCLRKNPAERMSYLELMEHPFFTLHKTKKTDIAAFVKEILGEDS
# B3: Mothers against decapentaplegic homolog 4 (Homo sapiens), Q13485 (parent)
# chain: B1 chain
# partner: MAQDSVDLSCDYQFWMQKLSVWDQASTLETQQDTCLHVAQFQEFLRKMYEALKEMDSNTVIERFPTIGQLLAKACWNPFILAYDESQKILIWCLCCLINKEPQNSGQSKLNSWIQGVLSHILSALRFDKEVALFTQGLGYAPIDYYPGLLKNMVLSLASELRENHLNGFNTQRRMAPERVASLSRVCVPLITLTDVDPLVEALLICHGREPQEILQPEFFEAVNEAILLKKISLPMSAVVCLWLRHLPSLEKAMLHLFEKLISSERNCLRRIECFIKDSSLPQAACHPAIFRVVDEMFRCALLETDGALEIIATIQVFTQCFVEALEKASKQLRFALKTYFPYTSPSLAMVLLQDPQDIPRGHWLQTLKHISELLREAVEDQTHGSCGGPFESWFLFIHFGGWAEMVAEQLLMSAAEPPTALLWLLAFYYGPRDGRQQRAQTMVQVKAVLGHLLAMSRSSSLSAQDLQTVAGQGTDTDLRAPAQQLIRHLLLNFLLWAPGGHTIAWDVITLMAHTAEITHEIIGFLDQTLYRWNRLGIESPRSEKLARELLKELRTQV
# B4: Mothers against decapentaplegic homolog 4 (Homo sapiens), Q13485 (parent)
# chain: B1 chain
# partner: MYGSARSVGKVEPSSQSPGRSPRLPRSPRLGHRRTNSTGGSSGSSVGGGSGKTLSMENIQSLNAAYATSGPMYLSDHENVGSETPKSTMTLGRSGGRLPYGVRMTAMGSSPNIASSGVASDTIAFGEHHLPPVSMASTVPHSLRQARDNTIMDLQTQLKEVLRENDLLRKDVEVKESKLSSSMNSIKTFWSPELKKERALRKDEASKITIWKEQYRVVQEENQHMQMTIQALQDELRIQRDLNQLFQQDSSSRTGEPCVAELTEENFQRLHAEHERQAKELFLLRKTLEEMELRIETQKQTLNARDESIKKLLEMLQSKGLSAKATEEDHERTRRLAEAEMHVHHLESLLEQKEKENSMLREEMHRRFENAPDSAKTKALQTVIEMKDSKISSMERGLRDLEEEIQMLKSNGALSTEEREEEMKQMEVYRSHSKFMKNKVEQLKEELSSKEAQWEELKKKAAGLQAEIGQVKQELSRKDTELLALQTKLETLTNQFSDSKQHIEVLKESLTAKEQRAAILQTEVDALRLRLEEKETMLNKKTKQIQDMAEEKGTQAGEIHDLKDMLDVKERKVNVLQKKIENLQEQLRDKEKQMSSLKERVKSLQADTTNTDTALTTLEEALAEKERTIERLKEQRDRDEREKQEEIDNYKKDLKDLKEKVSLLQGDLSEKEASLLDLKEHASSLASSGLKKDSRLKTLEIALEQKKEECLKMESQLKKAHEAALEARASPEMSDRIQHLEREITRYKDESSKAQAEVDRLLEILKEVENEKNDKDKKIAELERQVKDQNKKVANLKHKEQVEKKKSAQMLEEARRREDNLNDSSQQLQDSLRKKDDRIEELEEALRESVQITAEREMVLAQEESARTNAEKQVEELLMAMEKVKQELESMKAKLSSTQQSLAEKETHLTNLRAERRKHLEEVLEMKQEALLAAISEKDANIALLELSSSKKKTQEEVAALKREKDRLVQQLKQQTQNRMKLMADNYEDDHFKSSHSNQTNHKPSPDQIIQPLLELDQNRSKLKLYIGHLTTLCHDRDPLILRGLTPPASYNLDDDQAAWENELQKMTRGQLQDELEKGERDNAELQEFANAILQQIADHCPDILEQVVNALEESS
# B5: Mothers against decapentaplegic homolog 4 (Homo sapiens), Q13485 (parent)
# chain: B1 chain
# partner: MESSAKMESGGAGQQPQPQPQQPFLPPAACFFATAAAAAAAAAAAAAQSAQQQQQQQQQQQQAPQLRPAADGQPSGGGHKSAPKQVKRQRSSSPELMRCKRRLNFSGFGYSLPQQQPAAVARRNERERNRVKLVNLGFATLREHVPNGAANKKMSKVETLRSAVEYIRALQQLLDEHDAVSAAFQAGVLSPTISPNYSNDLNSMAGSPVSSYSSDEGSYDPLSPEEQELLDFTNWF
# B6: Mothers against decapentaplegic homolog 4 (Homo sapiens), Q13485 (parent)
# chain: B1 chain
# partner: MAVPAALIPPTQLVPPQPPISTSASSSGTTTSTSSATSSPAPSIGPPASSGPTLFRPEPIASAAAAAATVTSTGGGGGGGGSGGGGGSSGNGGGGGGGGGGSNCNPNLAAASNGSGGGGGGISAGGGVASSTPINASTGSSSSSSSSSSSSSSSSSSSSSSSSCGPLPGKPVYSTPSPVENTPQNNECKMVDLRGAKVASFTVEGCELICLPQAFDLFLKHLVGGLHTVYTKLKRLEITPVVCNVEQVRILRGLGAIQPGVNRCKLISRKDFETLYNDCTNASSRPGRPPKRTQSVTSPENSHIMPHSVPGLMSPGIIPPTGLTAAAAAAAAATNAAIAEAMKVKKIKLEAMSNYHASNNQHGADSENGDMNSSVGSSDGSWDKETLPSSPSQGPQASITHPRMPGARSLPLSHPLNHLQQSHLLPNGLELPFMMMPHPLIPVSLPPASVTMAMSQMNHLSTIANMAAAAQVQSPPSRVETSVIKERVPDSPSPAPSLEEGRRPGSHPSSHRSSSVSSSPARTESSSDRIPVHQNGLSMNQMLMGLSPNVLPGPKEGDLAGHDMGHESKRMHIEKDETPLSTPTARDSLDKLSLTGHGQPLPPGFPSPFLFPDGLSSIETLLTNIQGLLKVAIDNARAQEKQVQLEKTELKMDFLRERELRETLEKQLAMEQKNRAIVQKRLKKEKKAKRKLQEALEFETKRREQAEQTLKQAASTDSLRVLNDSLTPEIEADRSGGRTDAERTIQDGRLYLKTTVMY
# B7: Mothers against decapentaplegic homolog 4 (Homo sapiens), Q13485 (parent)
# chain: B1 chain
# partner: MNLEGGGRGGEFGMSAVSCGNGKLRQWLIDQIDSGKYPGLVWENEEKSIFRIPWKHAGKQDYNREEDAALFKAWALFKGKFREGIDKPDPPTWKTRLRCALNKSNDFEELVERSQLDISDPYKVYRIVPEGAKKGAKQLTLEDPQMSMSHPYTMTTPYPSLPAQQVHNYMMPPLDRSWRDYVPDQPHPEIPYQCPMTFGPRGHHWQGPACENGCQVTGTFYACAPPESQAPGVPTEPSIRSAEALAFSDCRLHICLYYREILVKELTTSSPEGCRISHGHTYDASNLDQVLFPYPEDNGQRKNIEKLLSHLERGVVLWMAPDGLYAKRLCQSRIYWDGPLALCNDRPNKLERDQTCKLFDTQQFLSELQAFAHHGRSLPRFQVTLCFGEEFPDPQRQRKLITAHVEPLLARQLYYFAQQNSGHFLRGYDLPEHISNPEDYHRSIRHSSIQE
# Variants of: B1
# Details: with foxl2_human FOXL2, P58012
row,effect of a mutation on the interaction,Variant
1,with no effect,R361C

# Variants of: B1
# Details: with foxl2_human FOXL2, P58012
# Remark: another data set of the same source
row,effect of a mutation on the interaction,Variant
1,with no effect,G386D

# Variants of: B1
# Details: with foxl2_human FOXL2, P58012
# Remark: another data set of the same source
row,effect of a mutation on the interaction,Variant
1,with no effect,D351H

# Variants of: B2
# Details: with mp2k3_human MAP2K3, P46734
row,effect of a mutation on the interaction,Variant
1,with no effect,D351H

# Variants of: B2
# Details: with mp2k3_human MAP2K3, P46734
# Remark: another data set of the same source
row,effect of a mutation on the interaction,Variant
1,with no effect,R361H

# Variants of: B2
# Details: with mp2k3_human MAP2K3, P46734
# Remark: another data set of the same source
row,effect of a mutation on the interaction,Variant
1,with no effect,R361C

# Variants of: B2
# Details: with mp2k3_human MAP2K3, P46734
# Remark: another data set of the same source
row,effect of a mutation on the interaction,Variant
1,with no effect,G386D

# Variants of: B3
# Details: with fancc_human FANCC
row,effect of a mutation on the interaction,Variant
1,with no effect,G386D

# Variants of: B3
# Details: with fancc_human FANCC
# Remark: another data set of the same source
row,effect of a mutation on the interaction,Variant
1,with no effect,D351H

# Variants of: B3
# Details: with fancc_human FANCC
# Remark: another data set of the same source
row,effect of a mutation on the interaction,Variant
1,with no effect,R361C

# Variants of: B3
# Details: with fancc_human FANCC
# Remark: another data set of the same source
row,effect of a mutation on the interaction,Variant
1,with no effect,R361H

# Variants of: B4
# Details: with rb6i2_human ERC1, Q8IUD2
row,effect of a mutation on the interaction,Variant
1,with no effect,R361H

# Variants of: B4
# Details: with rb6i2_human ERC1, Q8IUD2
# Remark: another data set of the same source
row,effect of a mutation on the interaction,Variant
1,with no effect,R361C

# Variants of: B4
# Details: with rb6i2_human ERC1, Q8IUD2
# Remark: another data set of the same source
row,effect of a mutation on the interaction,Variant
1,with no effect,G386D

# Variants of: B4
# Details: with rb6i2_human ERC1, Q8IUD2
# Remark: another data set of the same source
row,effect of a mutation on the interaction,Variant
1,with no effect,D351H

# Variants of: B5
# Details: with ascl1_human ASCL1, P50553
row,effect of a mutation on the interaction,Variant
1,with no effect,R361H

# Variants of: B5
# Details: with ascl1_human ASCL1, P50553
# Remark: another data set of the same source
row,effect of a mutation on the interaction,Variant
1,with no effect,R361C

# Variants of: B6
# Details: with dach1_human DACH1, Q9UI36
row,effect of a mutation on the interaction,Variant
1,with no effect,D351H

# Variants of: B6
# Details: with dach1_human DACH1, Q9UI36
# Remark: another data set of the same source
row,effect of a mutation on the interaction,Variant
1,with no effect,R361C

# Variants of: B6
# Details: with dach1_human DACH1, Q9UI36
# Remark: another data set of the same source
row,effect of a mutation on the interaction,Variant
1,with no effect,R361H

# Variants of: B6
# Details: with dach1_human DACH1, Q9UI36
# Remark: another data set of the same source
row,effect of a mutation on the interaction,Variant
1,with no effect,G386D

# Variants of: B7
# Details: with irf4_human IRF4, Q15306
row,effect of a mutation on the interaction,Variant
1,with no effect,G386D

# Variants of: B7
# Details: with irf4_human IRF4, Q15306
# Remark: another data set of the same source
row,effect of a mutation on the interaction,Variant
1,with no effect,D351H
